Reference: patent US20190185530A1 (WESTFAELISCHE WILHELMS UNIVERSITAET MUENSTER, published 2019)
Where a chain is given by its changes, count along the chain named. Names may count otherwise.

T1: human S100A9 protein of Uniprot accession no. P06702 (recombinant, wild type) (human, UniProt P06702 2-114)
T1 construct: Recombinant; also called recS100A9; S100A9 wt
T1 sequence: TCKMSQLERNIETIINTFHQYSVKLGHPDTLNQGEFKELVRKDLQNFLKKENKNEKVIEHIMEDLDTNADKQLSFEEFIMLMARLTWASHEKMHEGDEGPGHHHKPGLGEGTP

B1: human S100A8 protein of Uniprot accession no. P05109 (recombinant) (other)
chain: LTELEKALNSIIDVYHKYSLIKGNFHAVYRDDLKKLLETECPQYIRKKGADVWFKELDINTDGAVNFQEFLILVIKMGVAAHKKSHEESHKE
notes: Recombinant; also called recS100A8
B2: S100A9 (N69A+E78A), mutant of human S100A9 having a double Asn69→Ala and Glu78→Ala substitution (other)
chain: T1 sequence with N68A, E77A
B3: S100A9 (N69A), mutant of human S100A9 having a single Asn69→Ala substitution (other)
chain: T1 sequence with N68A
B4: S100A9 (E78A), mutant of human S100A9 having a single Glu78→Ala substitution (other)
chain: T1 sequence with E77A
B5: recS100A8/S100A9 wt heterodimer (other)
chain 1: B1 chain
chain 2: T1 sequence
notes: This heterodimer is the unit that joins with a second one to form the (S100A8/S100A9)2 tetramer when calcium is present; also called recS100A8/S100A9 wt complexes; wt S100A8/S100A9
B6: wild type human S100A12 protein (recombinant), single chain (other)
chain: TKLEEHLEGIVNIFHQYSVRKGHFDTLSKGELKQLLTKELANTIKNIKDKAVIDEIFQGLDANQDEQVDFQEFISLVAIALKAAHYHTHKE
notes: also called recS100A12 wt; wtS100A12
B7: recS100A8/S100A9(N69A) mutant heterodimer (other)
chain 1: B1 chain
chain 2: T1 sequence with N68A
notes: Heterodimer tested for association with itself into a tetramer; also called recS100A8/S100A9(N69A) mutant complexes
B8: recS100A8/S100A9(E78A) mutant heterodimer (other)
chain 1: B1 chain
chain 2: T1 sequence with E77A
notes: Heterodimer tested for association with itself into a tetramer
B9: recS100A8/S100A9(N69A+E78A) mutant heterodimer (other)
chain 1: B1 chain
chain 2: T1 sequence with N68A, E77A
notes: as for B8

How the values were obtained:
[1] = target: T1, human S100A9 protein of Uniprot …; experiment: MALDI-MS, native conditions, without calcium
Excerpt: (§1) FIG. 5: MALDI mass spectra in the absence and presence of calcium under native solvent conditions. (a) MALDI mass spectra of recS100A8/S100A9 wt complexes in the absence (left) and presence (right) of calcium using 2,6-dihydroxy-acetophenone as matrix. The mass spectra between m/z 20,000 and 100,000 together with an inset between m/z 46,000 and 50,000 are shown. T⁺, singly charged; T²⁺, doubly charged; T³⁺, triply charged tetramer. (b) MALDI mass spectra of recS100A8/S100A9(N69A) mutant complexes in the absence (left) and presence (right) of calcium.
S100A8 and S100A9 exist as heterodimers in the absence of calcium, and these heterodimeric complexes associate to (S100A8/S100A9)₂ tetramers upon calcium-binding. […] In the absence of calcium, samples show intense signals of singly charged heterodimers. […] Other prominent signals are detected at molecular masses of around 24 kDa and 16 kDa, representing doubly charged (T2+) or triply charged (T3+) tetramers in accordance with results reported earlier for the native proteins purified from human granulocytes. The number of Ca2+ bound to the tetramers was calculated from the difference between the observed masses of the tetramers and the sum of the calculated theoretical molecular masses of the monomeric components.

[2] = target: B1; experiment: ESI-MS, native conditions
[3] = target: B1; experiment: glycerol density gradient centrifugation with EGTA, SDS-PAGE of fractions
Experimental: (§2) FIG. 7: Density gradient centrifugation of S100A8/S100A9 proteins. wt and mutant recS100A8/S100A9 complexes were loaded on a glycerol gradient in the presence of either 1 mM EGTA or 100 μM Ca2+. After centrifugation, successive fractions of the gradients were analyzed by SDS-PAGE. […] Addition of calcium induced a marked shift for recS100A8/S100A9 wt to higher glycerol densities, whereas for the mutant complexes recS100A8/S100A9(N69A) and recS100A8/S100A9(E78A) no shift was observed.

[4] = target: the molecule itself; experiment: glycerol density gradient centrifugation with calcium, SDS-PAGE of fractions (heterodimer to heterodimer)
Experimental: as §2

[5] = target: the molecule itself; experiment: glycerol centrifugation with EGTA, Bradford assay of fractions (homodimer)
Experimental: FIG. 8: Glycerol centrifugation of S100A12 proteins. Wild type (wt) and mutant recS100A12 complexes were loaded on a 15% glycerol solution in the presence of either EGTA or Ca²⁺ or Zn²⁺ or Ca²⁺/Zn²⁺. Buffer conditions were 20 mM HEPES, 140 mM NaCl, pH 7.4. After centrifugation, successive fractions of the gradients were analyzed by the colorimetric assay Bradford. […] Addition of calcium or zinc alone induced no shift for wtS100A12 to higher glycerol fractions. Addition of calcium plus zinc induced a marked shift for wtS100A12 to higher glycerol fractions, whereas for the mutant complex recS100A12(E73A) no shift was observed. FIG. 8A: Protein concentrations of collected fractions determined by Bradford assay. Sample A: S100A12 wild type+2 mM EGTA, sample B S100A12 wild type+5 mM CaCl₂, sample C: S100A12 wild type+1 mM Zn, sample D S100A12 wild type+200 μM Zn, sample E: S100A12 wild type+5 mM CaCl₂+200 μM Zn, sample F: S100A12 wild type+2.5 mM CaCl₂+100 μM Zn FIG. 8B: Summary of collected and analysed fractions of wtS100A12 (see FIG. 8A) in the presence or absence of bivalent cations as indicated in the figure. FIG. 8C Summary of collected and analysed fractions of wtS100A12 and recS100A12E73A mutant in the presence (5 mM CaCl₂+200 μM Zn, 2.5 mM CaCl₂+100 μM Zn) or absence (2 mM EGTA) of bivalent cations as indicated in the figure.

[6] = target: the molecule itself; experiment: MALDI-MS, native conditions, with calcium (heterodimer to heterodimer)
Excerpt: as §1

B1
binding result [1]: binds

B2
binding result [2]: binds

B3
binding result [3]: binds

B4
binding result [3]: binds

B5
binding result [4]: binds

B6
binding result [5]: binds

B7
binding result [6]: no binding

B8
binding result [6]: no binding

B9
binding result [6]: no binding
